From patent US20240279324A1

Target: VEGF (human) (UniProt P15692)
Assay: VEGF blocking assay (luminescence)

VEGF (human), sequence (P15692 other isoform, or with tags, fused parts or gaps): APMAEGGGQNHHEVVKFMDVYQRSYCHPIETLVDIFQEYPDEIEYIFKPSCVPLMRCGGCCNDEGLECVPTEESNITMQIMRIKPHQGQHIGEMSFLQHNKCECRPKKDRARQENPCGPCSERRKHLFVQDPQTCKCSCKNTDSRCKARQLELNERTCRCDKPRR

IC50: 0.107 nM
Substance: Avastin
